The Immune Epitope Database (IEDB)
pKd: −log10 of the molar value.

Key:
HLA-B*15:03 = assay: IEDB peptide-MHC binding, purified MHC/competitive/radioactivity; filed as Kd, often an IC50 or EC50 that approximates it; ≥ and ≤ were set here for values at or beyond the usual limits of such assays; conditions: source organism: Vaccinia virus WR
HLA-B*35:01 [1] = assay: IEDB peptide-MHC binding, purified MHC/direct/fluorescence; filed as Kd, often an IC50 or EC50 that approximates it; ≥ and ≤ were set here for values at or beyond the usual limits of such assays
HLA-B*08:01 [2] = assay: as above
HLA-A*01:01 [3] = assay: as above
HLA-A*31:01 [4] = assay: as above
HLA-A*11:01 = assay: as above
HLA-A*03:01 [5] = assay: as above
HLA-A*02:01 [6] = assay: as above
HLA-B*58:01 [7] = assay: as above
HLA-B*15:01 [8] = assay: as above
HLA-B*07:02 [9] = assay: as above
HLA-A*26:01 [10] = assay: as above
HLA-A*69:01 [11] = assay: as above
HLA-B*27:05 [12] = assay: as above
HLA-B*57:01 = assay: IEDB peptide-MHC binding, purified MHC/competitive/fluorescence; filed as Kd, often an IC50 or EC50 that approximates it; ≥ and ≤ were set here for values at or beyond the usual limits of such assays; conditions: source organism: Orthohantavirus tulaense
HLA-B*35:01 [13] = assay: as above
HLA-B*27:03 = assay: as above; conditions: source organism: Orthohantavirus tulaense
HLA-A*02:01 [14] = assay: as above; conditions: source organism: Orthohantavirus tulaense
HLA-B*58:01 [15] = assay: as above
HLA-B*46:01 = assay: as above
HLA-A*26:01 [16] = assay: as above; conditions: source organism: Orthohantavirus tulaense
HLA-A*69:01 [17] = assay: as above; conditions: source organism: Orthohantavirus tulaense
HLA-A*02:16 = assay: IEDB peptide-MHC binding, purified MHC/direct/fluorescence; filed as Kd, often an IC50 or EC50 that approximates it; ≥ and ≤ were set here for values at or beyond the usual limits of such assays; conditions: source organism: Orthohantavirus tulaense
HLA-A*02:12 = assay: as above; conditions: source organism: Orthohantavirus tulaense
HLA-A*02:03 = assay: as above; conditions: source organism: Orthohantavirus tulaense
HLA-A*02:19 = assay: as above; conditions: source organism: Orthohantavirus tulaense
HLA-A*02:11 = assay: as above; conditions: source organism: Orthohantavirus tulaense
HLA-A*68:02 = assay: as above; conditions: source organism: Orthohantavirus tulaense
HLA-B*08:01 [18] = assay: IEDB peptide-MHC binding, purified MHC/competitive/fluorescence; filed as Kd, often an IC50 or EC50 that approximates it; ≥ and ≤ were set here for values at or beyond the usual limits of such assays; conditions: source organism: Yersinia pestis Nepal516
HLA-A*31:01 [19] = assay: as above; conditions: source organism: Yersinia pestis Nepal516
HLA-A*03:01 [20] = assay: as above
HLA-B*27:05 [21] = assay: as above
HLA-A*32:01 = assay: IEDB peptide-MHC binding, purified MHC/competitive/radioactivity; filed as Kd, often an IC50 or EC50 that approximates it; ≥ and ≤ were set here for values at or beyond the usual limits of such assays; conditions: source organism: Vaccinia virus WR
HLA-B*15:01 [22] = assay: as above; conditions: source organism: Vaccinia virus WR
HLA-B*07:02 [23] = assay: IEDB peptide-MHC binding, purified MHC/competitive/fluorescence; filed as Kd, often an IC50 or EC50 that approximates it; ≥ and ≤ were set here for values at or beyond the usual limits of such assays
HLA-B*51:01 = assay: as above; conditions: source organism: Yersinia pestis Nepal516
HLA-B*15:42 = assay: as above; conditions: source organism: Yersinia pestis Nepal516
HLA-B*45:06 = assay: as above; conditions: source organism: Yersinia pestis Nepal516
HLA-B*83:01 = assay: as above; conditions: source organism: Yersinia pestis Nepal516
HLA-A*01:01 [24] = assay: as above; conditions: source organism: Salmonella enterica subsp. enterica serovar Typhi
HLA-B*15:01 [25] = assay: as above; conditions: source organism: Salmonella enterica subsp. enterica serovar Typhi
HLA-A*30:01 = assay: IEDB peptide-MHC binding, purified MHC/competitive/radioactivity; filed as Kd, often an IC50 or EC50 that approximates it; ≥ and ≤ were set here for values at or beyond the usual limits of such assays; conditions: source organism: Vaccinia virus WR
HLA-B*08:01 [26] = assay: as above; conditions: source organism: Vaccinia virus WR
HLA-B*44:02 = assay: IEDB peptide-MHC binding, purified MHC/direct/fluorescence; filed as Kd, often an IC50 or EC50 that approximates it; ≥ and ≤ were set here for values at or beyond the usual limits of such assays; conditions: source organism: Giardia lamblia ATCC 50803
HLA-B*40:01 = assay: as above; conditions: source organism: Giardia lamblia ATCC 50803
[27] = source organism: Vibrio vulnificus
[28] = source organism: Orthohantavirus tulaense
[29] = source organism: Yersinia pestis Nepal516
[30] = source organism: Mycobacterium tuberculosis F11
[31] = source organism: Salmonella enterica subsp. enterica serovar Typhi
[32] = source organism: Giardia lamblia ATCC 50803

Sequence: AKTSTLIFF
- pKd (HLA-B*15:03): 8.81

Sequence: ALVITINYF
- pKd (HLA-B*15:03): 6.18

Sequence: EEVWRDPYL
- pKd (HLA-B*35:01 [1]; [27]): 7.62
- pKd (HLA-B*08:01 [2]; [27]): ≤ 4.70
- pKd (HLA-A*01:01 [3]; [27]): ≤ 4.70
- pKd (HLA-A*31:01 [4]; [27]): ≤ 4.70
- pKd (HLA-A*11:01; [27]): ≤ 4.70
- pKd (HLA-A*03:01 [5]; [27]): ≤ 4.70
- pKd (HLA-A*02:01 [6]; [27]): ≤ 4.70
- pKd (HLA-B*58:01 [7]; [27]): ≤ 4.70
- pKd (HLA-B*15:01 [8]; [27]): ≤ 4.70
- pKd (HLA-B*07:02 [9]; [27]): ≤ 4.70
- pKd (HLA-A*26:01 [10]; [27]): ≤ 4.70
- pKd (HLA-A*69:01 [11]; [27]): ≤ 4.70
- pKd (HLA-B*27:05 [12]; [27]): ≤ 4.70

Sequence: FAAVEGIFF
- pKd (HLA-B*15:03): 6.51

Sequence: FGAAVSLLF
- pKd (HLA-B*57:01): ≤ 4.70
- pKd (HLA-B*35:01 [13]; [28]): 8.57
- pKd (HLA-B*27:03): ≤ 4.70
- pKd (HLA-A*02:01 [14]): ≤ 4.70
- pKd (HLA-B*58:01 [15]; [28]): 8.89
- pKd (HLA-B*46:01; [28]): ≤ 4.70
- pKd (HLA-A*26:01 [16]): ≤ 4.70
- pKd (HLA-A*69:01 [17]): ≤ 4.70
- pKd (HLA-A*02:16): ≤ 4.70
- pKd (HLA-A*02:12): ≤ 4.70
- pKd (HLA-A*02:03): ≤ 4.70
- pKd (HLA-A*02:19): ≤ 4.70
- pKd (HLA-A*03:01 [5]; [28]): ≤ 4.70
- pKd (HLA-B*15:01 [8]; source organism: Orthohantavirus andesense): 7.27
- pKd (HLA-A*02:11): ≤ 4.70
- pKd (HLA-A*68:02): ≤ 4.70

Sequence: FIRLRFAFK
- pKd (HLA-B*08:01 [18]): ≤ 4.70
- pKd (HLA-A*31:01 [19]): 7.76
- pKd (HLA-A*03:01 [20]; [29]): ≤ 4.70

Sequence: FSIPVTFSY
- pKd (HLA-B*35:01 [13]; [30]): ≥ 10.00
- pKd (HLA-B*58:01 [15]; [30]): 9.15
- pKd (HLA-B*46:01; [30]): 7.16
- pKd (HLA-A*01:01 [3]; source organism: Mycobacterium tuberculosis): 6.50

Sequence: GRVTVSTKR
- pKd (HLA-B*27:05 [21]; source organism: Influenza A virus): 6.26

Sequence: ILAPNPNRF
- pKd (HLA-B*15:03): 7.58

Sequence: ILVNQYSHM
- pKd (HLA-B*15:03): 7.43

Sequence: KIYNVTNPF
- pKd (HLA-A*32:01): 8.37
- pKd (HLA-B*15:03): 8.12
- pKd (HLA-B*15:01 [22]): 8.57

Sequence: LPACVYGLAV
- pKd (HLA-B*07:02 [23]; source organism: Influenza A virus (A/parakeet/Narita/92A/98(H9N2))): 7.40

Sequence: MPAIFFSIV
- pKd (HLA-B*35:01 [13]; [29]): 8.92
- pKd (HLA-B*51:01): 5.88
- pKd (HLA-B*15:42): ≤ 5.30
- pKd (HLA-B*45:06): ≤ 5.30
- pKd (HLA-B*83:01): 6.19
- pKd (HLA-B*07:02 [23]; [29]): 7.08

Sequence: MTAAQIRRY
- pKd (HLA-A*01:01 [24]): 6.61
- pKd (HLA-A*03:01 [20]; [31]): 5.46
- pKd (HLA-B*58:01 [15]; [31]): ≤ 4.70
- pKd (HLA-B*15:01 [25]): 6.78

Sequence: TSNWTGNYF
- pKd (HLA-A*30:01): 5.64
- pKd (HLA-A*32:01): 4.94
- pKd (HLA-B*15:03): 6.05
- pKd (HLA-B*08:01 [26]): 4.81
- pKd (HLA-B*15:01 [22]): 5.11

Sequence: YQNHGFVSF
- pKd (HLA-A*32:01): 6.45
- pKd (HLA-B*15:03): 8.61
- pKd (HLA-B*15:01 [22]): 9.76

Sequence: YQYGDNLIL
- pKd (HLA-B*35:01 [1]; [32]): 6.39
- pKd (HLA-B*08:01 [2]; [32]): ≤ 4.70
- pKd (HLA-A*01:01 [3]; [32]): ≤ 4.70
- pKd (HLA-A*31:01 [4]; [32]): ≤ 4.70
- pKd (HLA-A*11:01; [32]): ≤ 4.70
- pKd (HLA-A*03:01 [5]; [32]): ≤ 4.70
- pKd (HLA-A*02:01 [6]; [32]): 7.66
- pKd (HLA-B*58:01 [7]; [32]): ≤ 4.70
- pKd (HLA-B*15:01 [8]; [32]): 7.05
- pKd (HLA-B*44:02): ≤ 4.70
- pKd (HLA-B*07:02 [9]; [32]): ≤ 4.70
- pKd (HLA-A*26:01 [10]; [32]): ≤ 4.70
- pKd (HLA-A*69:01 [11]; [32]): ≤ 4.70
- pKd (HLA-B*27:05 [12]; [32]): 6.37
- pKd (HLA-B*40:01): 7.11

Sequence: YRLFKHGLK
- pKd (HLA-B*27:05 [21]; source organism: Influenza A virus (A/Memphis/1/1978(H1N1))): 6.66
